Laboratory results: PMC5756609

Molecular target: FcγR (on DIV 7 primary rat hippocampal cells, Erk phosphorylation assay)

ratio of pErk to Erk (western blot, percentage of vehicle controls) in DIV 7 hippocampal cell cultures exposed for 30 min to IgG-IC at 10 or 100 μg/ml; increased at 10 μg/ml but not at 100 μg/ml: 60.4
Substance: IgG immune complex (IgG-IC): pre-complexed mouse IgG and rat anti-mouse IgG, 1:1 ratio (w/w)
